This note sets out measurements from patent US20050227296A1, “Method for indentifying integrin antagonists” (The General Hospital Corporation, a Massachusetts …, priority 1988, published 2005).

One assay deals with T1, fibrinogen (Homo sapiens, UniProt P02671+P02675+P02679).
T1 sequence (P02671 20-629 limits assumed): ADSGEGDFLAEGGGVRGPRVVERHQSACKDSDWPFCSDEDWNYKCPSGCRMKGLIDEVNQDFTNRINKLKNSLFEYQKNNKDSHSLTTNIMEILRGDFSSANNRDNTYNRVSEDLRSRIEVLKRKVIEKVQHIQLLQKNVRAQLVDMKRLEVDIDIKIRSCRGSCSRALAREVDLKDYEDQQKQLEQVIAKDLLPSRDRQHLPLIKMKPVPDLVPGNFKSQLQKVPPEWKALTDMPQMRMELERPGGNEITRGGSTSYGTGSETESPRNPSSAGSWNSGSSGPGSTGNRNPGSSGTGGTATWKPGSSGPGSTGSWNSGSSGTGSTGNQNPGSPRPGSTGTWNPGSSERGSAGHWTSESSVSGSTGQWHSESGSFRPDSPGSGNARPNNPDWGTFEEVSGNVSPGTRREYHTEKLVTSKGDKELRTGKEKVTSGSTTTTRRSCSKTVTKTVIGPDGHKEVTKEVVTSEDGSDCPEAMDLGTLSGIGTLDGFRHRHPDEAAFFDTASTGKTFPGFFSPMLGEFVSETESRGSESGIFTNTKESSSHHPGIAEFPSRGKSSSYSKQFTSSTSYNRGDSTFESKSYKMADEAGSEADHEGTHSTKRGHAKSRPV
T1 sequence (P02675 31-491): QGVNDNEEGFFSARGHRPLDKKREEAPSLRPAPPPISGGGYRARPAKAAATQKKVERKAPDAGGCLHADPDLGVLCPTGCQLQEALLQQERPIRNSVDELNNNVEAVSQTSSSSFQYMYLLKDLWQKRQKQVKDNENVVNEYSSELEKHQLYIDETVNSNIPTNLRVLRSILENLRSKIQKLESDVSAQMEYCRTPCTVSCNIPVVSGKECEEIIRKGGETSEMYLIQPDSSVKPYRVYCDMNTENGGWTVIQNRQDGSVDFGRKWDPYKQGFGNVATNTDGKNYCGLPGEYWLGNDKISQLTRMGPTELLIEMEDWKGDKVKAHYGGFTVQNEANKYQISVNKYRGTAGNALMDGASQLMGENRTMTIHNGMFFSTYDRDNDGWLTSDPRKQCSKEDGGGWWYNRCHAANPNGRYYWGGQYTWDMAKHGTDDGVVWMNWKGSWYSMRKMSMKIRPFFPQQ
T1 sequence (P02679 27-453): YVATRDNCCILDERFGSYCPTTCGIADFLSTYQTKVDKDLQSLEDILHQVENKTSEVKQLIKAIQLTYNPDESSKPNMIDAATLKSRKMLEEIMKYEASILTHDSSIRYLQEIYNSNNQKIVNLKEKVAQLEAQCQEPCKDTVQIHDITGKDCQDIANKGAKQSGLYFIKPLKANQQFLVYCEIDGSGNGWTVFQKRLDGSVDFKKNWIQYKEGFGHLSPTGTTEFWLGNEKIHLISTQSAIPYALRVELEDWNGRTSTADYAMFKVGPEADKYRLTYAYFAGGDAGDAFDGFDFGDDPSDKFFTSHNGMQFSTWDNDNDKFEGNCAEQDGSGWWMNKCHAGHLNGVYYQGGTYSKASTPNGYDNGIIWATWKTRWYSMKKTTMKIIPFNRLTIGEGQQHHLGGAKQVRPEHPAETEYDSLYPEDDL
Briefly: A domain binding to fibrinogen.

The target of assay [1] is T2, EAiC3b (erythrocytes coated with iC3b) (Homo sapiens, UniProt P01024).
T2 construct: EAiC3b (erythrocytes coated with iC3b) were generated by treating EAC3b with purified human factors H and I; tissue Sigma Chemical Co. (C5-deficient human serum); host or cells: human serum C3 deposited on IgM-coated erythrocytes
T2 sequence (P01024 749-1303 limits assumed): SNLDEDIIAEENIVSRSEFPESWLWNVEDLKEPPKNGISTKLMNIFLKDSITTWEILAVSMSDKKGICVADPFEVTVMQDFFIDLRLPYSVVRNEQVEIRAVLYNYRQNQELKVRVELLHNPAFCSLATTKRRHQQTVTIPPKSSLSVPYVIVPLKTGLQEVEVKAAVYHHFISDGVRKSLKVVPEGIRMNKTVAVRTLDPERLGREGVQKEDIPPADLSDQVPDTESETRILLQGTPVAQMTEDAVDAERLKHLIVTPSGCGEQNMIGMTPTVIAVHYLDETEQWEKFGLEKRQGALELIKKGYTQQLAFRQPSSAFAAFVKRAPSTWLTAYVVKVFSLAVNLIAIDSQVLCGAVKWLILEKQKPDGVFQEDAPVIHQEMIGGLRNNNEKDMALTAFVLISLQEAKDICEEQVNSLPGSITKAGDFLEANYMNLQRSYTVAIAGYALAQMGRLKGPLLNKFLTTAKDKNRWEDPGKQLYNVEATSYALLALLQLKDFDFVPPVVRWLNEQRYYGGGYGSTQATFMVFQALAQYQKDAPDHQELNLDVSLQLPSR
T2 sequence (P01024 23-667 partner limits assumed): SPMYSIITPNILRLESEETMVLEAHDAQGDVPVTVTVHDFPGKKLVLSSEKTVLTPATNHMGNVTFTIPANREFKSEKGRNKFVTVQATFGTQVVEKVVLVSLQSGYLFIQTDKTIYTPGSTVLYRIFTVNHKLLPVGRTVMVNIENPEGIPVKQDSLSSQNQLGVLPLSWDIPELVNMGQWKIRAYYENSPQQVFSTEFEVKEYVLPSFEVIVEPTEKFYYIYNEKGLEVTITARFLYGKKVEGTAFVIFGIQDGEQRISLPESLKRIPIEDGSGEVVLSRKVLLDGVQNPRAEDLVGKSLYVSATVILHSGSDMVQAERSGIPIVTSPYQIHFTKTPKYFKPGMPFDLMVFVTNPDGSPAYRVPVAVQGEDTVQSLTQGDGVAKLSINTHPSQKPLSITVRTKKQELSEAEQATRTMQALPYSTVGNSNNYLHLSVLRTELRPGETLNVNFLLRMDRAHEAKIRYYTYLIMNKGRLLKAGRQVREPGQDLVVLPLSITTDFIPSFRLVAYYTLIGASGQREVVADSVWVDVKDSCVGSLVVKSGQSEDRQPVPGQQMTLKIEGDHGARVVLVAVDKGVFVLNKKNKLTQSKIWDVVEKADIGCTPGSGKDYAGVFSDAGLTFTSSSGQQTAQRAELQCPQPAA
T2 sequence (P01024 1321-1663 partner limits assumed): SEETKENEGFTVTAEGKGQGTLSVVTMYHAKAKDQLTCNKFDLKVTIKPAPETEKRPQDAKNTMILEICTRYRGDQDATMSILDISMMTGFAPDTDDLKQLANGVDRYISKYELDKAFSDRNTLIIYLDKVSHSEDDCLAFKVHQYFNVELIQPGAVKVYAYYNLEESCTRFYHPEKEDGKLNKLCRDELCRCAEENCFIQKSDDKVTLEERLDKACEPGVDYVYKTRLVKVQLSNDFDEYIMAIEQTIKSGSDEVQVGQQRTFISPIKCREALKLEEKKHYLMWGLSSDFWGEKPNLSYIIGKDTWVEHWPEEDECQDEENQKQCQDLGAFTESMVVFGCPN
The assay is described as follows: Erythrocyte binding assay, EAiC3b on immobilized proteins or peptides. How it is done:
(§1) Erythrocytes (E) coated with rabbit anti-E IgM (EA) or C3b (EAC3b) were prepared as described by Dana et al. (J. Immunol. 73:153, 1984). EAiC3b (erythrocytes coated with iC3b) were generated by treating EAC3b with purified human factors H and I, or alternatively prepared from EA using C5-deficient human serum (Sigma Chemical Co., St. Louis, Mo.). EAiC3b cells were washed and stored in isotonic veronal-buffered saline (VBS^2+), pH 7.4, containing 0.15 mM calcium-1 mM magnesium (MgCl2+CaCl2) and 1 mg/ml Soybean Trypsin Inhibitor (STI; Worthington Biochemical Co., Freehold, N.J.) at 1.5×10^8 cells/ml. EA, EAC3b or EAiC3b were labeled with 5-(and-6)-carboxy fluorescein (Molecular Probes, Eugene, Oreg.) as described by Michishita et al. (Cell 72:857, 1993).
Immobilization of recombinant proteins and peptides: Purified recombinant A-domain was added to Immulon-2 96-well microtiter plates (Dynatech) overnight. Wells were then washed once with phosphate-buffered-saline, pH 7.4 without metals, and blocked with 1% BSA at room temperature (RT) for one hour, followed by two washings with buffer A (composed of 60% GVBS:VBS^2+ mixed in a 1:3 ratio; Arnaout et al., in Complement Receptor Type 3 at 602-615, Academic Press, FL) containing 1 mM MnCl2 or MgCl2+CaCl2. All the peptides were stocked at 1 mg/ml in water and similarly adsorbed to Immulon-2 96-well plates. Binding of the anti-CD11b mabs to the coated rA-domain was measured by ELISA and read using a plate reader (Molecular Dynamics).
Erythrocyte binding assays: Fluoresceinated EAiC3b, EAC3b or EA were resuspended to 1.5×10^8/ml in buffer A, and added […] to wells containing immobilized proteins or peptides in a total volume of […]. The plates were then briefly centrifuged to settle the erythrocytes, and allowed to incubate at 37° C. for 15 minutes in a humidified incubator with 5% CO2. For the inhibition studies, E were preincubated with each recombinant protein or pure peptide in the presence of 2% BSA for 5 minutes at RT and added to wells coated with immobilized protein or peptide without washing, unless otherwise indicated. At the end of the binding reactions, wells were washed, examined briefly by light microscopy then solubilized with 1% SDS-0.2 N NaOH. Fluorescence was quantified (excitatory wavelength, 490 nm, emission wavelength, 510 nm) using a SLM 8000 fluorometer (SLM Instruments, Urbana, Ill.). In experiments where the effects of individual divalent cations were measured, Ca^2+ and Mg^2+ were replaced with metal-free buffers or with buffers containing each cation at […], unless otherwise indicated. The effect of temperature was evaluated in the presence of 1 mM MnCl2 at 37° C. and at 4° C.

The target of another assay is EAC3b (Homo sapiens, UniProt P01024). Briefly: Erythrocyte binding assay, EAC3b on immobilized protein. How it is done:
as §1, with “EA, EAC3b or EAiC3b were labeled with 5-(and-6)-carboxy fluorescein (Molecular Probes, Eugene, Oreg.) as described by Michishita et al. (Cell 72:857, 1993).” left out
Immobilization of recombinant proteins and peptides: Purified recombinant A-domain was added to Immulon-2 96-well microtiter plates (Dynatech) overnight. […] Binding of the anti-CD11b mabs to the coated rA-domain was measured by ELISA and read using a plate reader (Molecular Dynamics).
Erythrocyte binding assays: Fluoresceinated EAiC3b, EAC3b or EA were resuspended to 1.5×10^8/ml in buffer A, and added […] to wells containing immobilized proteins or peptides in a total volume of 100 ml. […] Fluorescence was quantified (excitatory wavelength, 490 nm, emission wavelength, 510 nm) using a SLM 8000 fluorometer (SLM Instruments, Urbana, Ill.). […] The effect of temperature was evaluated in the presence of 1 mM MnCl2 at 37° C. and at 4° C.

Sequence of EAC3b (P01024 749-1663 limits assumed): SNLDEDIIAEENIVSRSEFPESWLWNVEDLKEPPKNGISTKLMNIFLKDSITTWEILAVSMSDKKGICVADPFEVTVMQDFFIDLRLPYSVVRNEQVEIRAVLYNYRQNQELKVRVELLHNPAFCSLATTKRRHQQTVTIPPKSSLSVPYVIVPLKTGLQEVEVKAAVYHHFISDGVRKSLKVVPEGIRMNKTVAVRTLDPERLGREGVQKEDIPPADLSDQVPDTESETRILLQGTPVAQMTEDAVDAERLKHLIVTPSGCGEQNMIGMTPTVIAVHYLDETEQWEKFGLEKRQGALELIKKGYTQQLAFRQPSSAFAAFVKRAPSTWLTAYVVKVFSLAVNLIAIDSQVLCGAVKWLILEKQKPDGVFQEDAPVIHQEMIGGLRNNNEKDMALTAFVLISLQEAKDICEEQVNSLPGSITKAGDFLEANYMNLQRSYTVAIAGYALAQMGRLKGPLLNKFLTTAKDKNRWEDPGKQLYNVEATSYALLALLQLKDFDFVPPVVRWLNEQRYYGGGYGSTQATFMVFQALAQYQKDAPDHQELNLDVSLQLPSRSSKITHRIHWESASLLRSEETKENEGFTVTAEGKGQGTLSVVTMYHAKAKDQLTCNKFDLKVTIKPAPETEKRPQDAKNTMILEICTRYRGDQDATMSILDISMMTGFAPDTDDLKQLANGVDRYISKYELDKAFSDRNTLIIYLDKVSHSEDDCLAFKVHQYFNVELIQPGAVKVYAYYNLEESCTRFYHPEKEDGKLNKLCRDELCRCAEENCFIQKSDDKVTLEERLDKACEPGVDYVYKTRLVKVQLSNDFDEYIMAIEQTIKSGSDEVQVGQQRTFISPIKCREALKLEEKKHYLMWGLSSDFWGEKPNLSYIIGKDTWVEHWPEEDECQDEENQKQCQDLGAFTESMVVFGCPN
Sequence of EAC3b (P01024 23-667 partner limits assumed): as the sequence (P01024 23-667 partner limits assumed) above

Regarding “r11bA: recombinant human CD11b A domain (Cys128 to Glu321), expressed as GST fusion protein, used as such or after thrombin cleavage”, in the assay with fibrinogen, the “binding of the A domain to fibrinogen” value is reported as “binds”. The “binding of the A domain to iC3b” value in assay [1] is reported as “binds”. Also, in assay [1] (1 mM MnCl2, 1 mM MgCl2 or 1 mM MgCl2 and 0.15 mM CaCl2), the “EAiC3b binding to rA-domain with MnCl2, MgCl2 or MgCl2 plus CaCl2” value was “supported”. Further, in assay [1] (37° C. and 4° C., 1 mM MnCl2), the “temperature dependency of EAiC3b binding to rA-domain” value is listed as “temperature-independent”. In assay [1] (37° C., divalent cations), the “direct binding of EAiC3b to immobilized protein or peptide” value is recorded as “bound”. In addition, the “EAiC3b binding to rA-domain with CaCl2 alone” value in assay [1] (CaCl2 alone (0.15-1 mM)) is on record as “ineffective”. In addition, the “EAiC3b binding to rA-domain, divalent cations omitted or EDTA included” value in assay [1] (no divalent cations or EDTA) was “No specific binding”. Further, the “binding of EAC3b to immobilized protein” value with EAC3b was “not”.
